Here are results for 19 variants from the supplement of paper PMC7125110.

As a reminder, the kcat is the number of substrate molecules converted per active site and unit of time at saturation. What is called KM is the concentration of substrate that gives half-maximal velocity.

B1: glmS ribozyme (parent)
chain: AUAAAAGCGCCAGAACUACAGAAAUGUAGUUGACGAGGAGGAGGUUUAUCGAAUUUUCGGCGGAUGCCUCCAAA

± gives the standard error. For part of these data: Variants at the floor of the assay were thinned out.

Holding throughout (conditions): with glucosamine-6-phosphate
Variants of B1 are the subject of data set [1]. The data set is described as follows: kcat; higher = faster cleavage; RNA array. The procedure, abridged: (§1)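 Over ~14 h at 37 °C, tiles were imaged as glucosamine-6-phosphate (40 μM to 10 mM) in HEPES/KCl/Mg(OAc)2 buffer flowed across sequenced MiSeq chips. The chips carried barcoded ribozyme variants transcribed in situ by E. coli RNA polymerase and tracked with a hybridised Cy3 probe. After normalisation to baseline and to non-cleaving reference variants, one- or two-exponential decay fits of per-tile medians gave kobs. kcat and KM followed from weighted Michaelis–Menten fits across concentrations.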

The variants in data set [2] derive from B1. The data set is described as follows: KM; higher = weaker cofactor use; RNA array. The procedure, abridged:
as §1

The variants in data set [3] derive from B1. The data set can be described thus: self-cleavage kobs at 40 uM GlcN6P; higher = faster cleavage; RNA array. The procedure, abridged:
as §1

Data set [4] covers variants of B1. The data set can be described thus: self-cleavage kobs at 160 uM GlcN6P; higher = faster cleavage; RNA array. The procedure, abridged:
as §1

In data set [5] the parent is B1. The data set can be described thus: self-cleavage kobs at 640 uM GlcN6P; higher = faster cleavage; RNA array. The procedure, abridged: as §1
Variants of B1 are the subject of data set [6]. The data set can be described thus: self-cleavage kobs at 10000 uM GlcN6P; higher = faster cleavage; RNA array. The procedure, abridged:
as §1

In data set [7] the parent is B1. The data set is described as follows: self-cleavage kobs at 2500 uM GlcN6P; higher = faster cleavage; RNA array. The procedure, abridged:
as §1

A15G U46C: in data set [1], the kcat was determined as 0.00378 ± 0.0014 s⁻¹. Moreover, in data set [2], the KM is 1440 ± 680 µM. Also, in data set [3], the “self-cleavage kobs at 40 uM GlcN6P” value is 0.000112 ± 2.9e-05 s⁻¹. The “self-cleavage kobs at 160 uM GlcN6P” value in data set [4] was determined as 0.000465 ± 0.00016 s⁻¹. Besides, the “self-cleavage kobs at 640 uM GlcN6P” value in data set [5] came to 0.000897 ± 0.00029 s⁻¹. In addition, the “self-cleavage kobs at 10000 uM GlcN6P” value in data set [6] was found to be 0.00388 ± 0.0013 s⁻¹.
Consider G44C C71U, for which, in data set [1], the catalytic constant (kcat) came out at 1.52e-05 ± 3.3e-06 s⁻¹.
In the case of C16A U30G, the catalytic constant (kcat) in data set [1] was 0.000341 ± 4.6e-05 s⁻¹. The KM in data set [2] came to 2530 ± 560 µM. For the same variant, the “self-cleavage kobs at 640 uM GlcN6P” value in data set [5] was found to be 6.82e-05 ± 1.2e-05 s⁻¹. Also, the “self-cleavage kobs at 2500 uM GlcN6P” value in data set [7] stood at 0.000175 ± 2.3e-05 s⁻¹. Besides, the “self-cleavage kobs at 10000 uM GlcN6P” value in data set [6] amounted to 0.000243 ± 9.7e-05 s⁻¹.
For the variant U47C A64G, the kcat in data set [1] worked out at 0.00525 ± 0.0013 s⁻¹. Further, the Michaelis-Menten constant (KM) in data set [2] was determined as 1890 ± 650 µM. For the same variant, in data set [3], the “self-cleavage kobs at 40 uM GlcN6P” value turned out to be 0.000131 ± 1.7e-05 s⁻¹. The “self-cleavage kobs at 160 uM GlcN6P” value in data set [4] turned out to be 0.000324 ± 9e-05 s⁻¹. The “self-cleavage kobs at 640 uM GlcN6P” value in data set [5] is 0.00115 ± 0.00027 s⁻¹. Moreover, in data set [7], the “self-cleavage kobs at 2500 uM GlcN6P” value came out at 0.0019 ± 0.00068 s⁻¹. In data set [6], the “self-cleavage kobs at 10000 uM GlcN6P” value was 0.00499 ± 0.00066 s⁻¹.
For the variant U49C C58G, the kcat in data set [1] was under 1e-05 s⁻¹. Further, the “self-cleavage kobs at 10000 uM GlcN6P” value in data set [6] was under 1e-05 s⁻¹.
U31G A33U: the kcat in data set [1] came to 0.000102 ± 8.8e-06 s⁻¹. Moreover, the KM in data set [2] came out at 4090 ± 910 µM. For the same variant, the “self-cleavage kobs at 2500 uM GlcN6P” value in data set [7] came out at 3.73e-05 ± 1.2e-05 s⁻¹. In addition, the “self-cleavage kobs at 10000 uM GlcN6P” value in data set [6] worked out at 7.23e-05 ± 1.2e-05 s⁻¹.
Regarding A15U U65G, the kcat in data set [1] is 0.00187 ± 0.00077 s⁻¹. In addition, the “self-cleavage kobs at 40 uM GlcN6P” value in data set [3] turned out to be 3.19e-05 ± 1.1e-05 s⁻¹. Moreover, the “self-cleavage kobs at 160 uM GlcN6P” value in data set [4] was 6.21e-05 ± 1e-05 s⁻¹. Also, the “self-cleavage kobs at 640 uM GlcN6P” value in data set [5] came to 0.00036 ± 4.5e-05 s⁻¹. The “self-cleavage kobs at 2500 uM GlcN6P” value in data set [7] worked out at 0.00056 ± 0.00017 s⁻¹. Also, the “self-cleavage kobs at 10000 uM GlcN6P” value in data set [6] was 0.00139 ± 0.00025 s⁻¹.
Consider C16A G29C, for which the kcat in data set [1] was found to be 0.00401 ± 0.0015 s⁻¹. Also, the KM in data set [2] is 1940 ± 970 µM. For the same variant, the “self-cleavage kobs at 40 uM GlcN6P” value in data set [3] is 0.000114 ± 1.3e-05 s⁻¹. Further, the “self-cleavage kobs at 160 uM GlcN6P” value in data set [4] stood at 0.000215 ± 4.5e-05 s⁻¹. Further, the “self-cleavage kobs at 640 uM GlcN6P” value in data set [5] is 0.000949 ± 0.00011 s⁻¹. In addition, the “self-cleavage kobs at 2500 uM GlcN6P” value in data set [7] turned out to be 0.00217 ± 0.0003 s⁻¹. Also, the “self-cleavage kobs at 10000 uM GlcN6P” value in data set [6] came to 0.00391 ± 0.00075 s⁻¹.
Take A14U G29C: the kcat in data set [1] turned out to be 1.25e-05 ± 3.3e-06 s⁻¹.
For A15U C16U, the turnover number (kcat) in data set [1] stood at 0.00176 ± 0.00028 s⁻¹. In data set [2], the KM worked out at 1750 ± 440 µM. In data set [3], the “self-cleavage kobs at 40 uM GlcN6P” value was 4.63e-05 ± 9.6e-06 s⁻¹. For the same variant, the “self-cleavage kobs at 160 uM GlcN6P” value in data set [4] came out at 0.000152 ± 3.2e-05 s⁻¹. The “self-cleavage kobs at 640 uM GlcN6P” value in data set [5] worked out at 0.000423 ± 9.6e-05 s⁻¹. Moreover, the “self-cleavage kobs at 2500 uM GlcN6P” value in data set [7] came out at 0.000885 ± 0.00016 s⁻¹. Also, the “self-cleavage kobs at 10000 uM GlcN6P” value in data set [6] was 0.00172 ± 0.00026 s⁻¹.
In the case of C10A A12G, the kcat in data set [1] was under 1e-05 s⁻¹. Further, the “self-cleavage kobs at 40 uM GlcN6P” value in data set [3] was under 1e-05 s⁻¹. Moreover, in data set [6], the “self-cleavage kobs at 10000 uM GlcN6P” value is under 1e-05 s⁻¹.
In the case of U49G C61A, the kcat in data set [1] is 1.48e-05 ± 3.5e-06 s⁻¹.
As to G40A A53U, in data set [1], the kcat worked out at 0.00621 ± 0.0028 s⁻¹. For the same variant, the “self-cleavage kobs at 40 uM GlcN6P” value in data set [3] is 0.00015 ± 1.5e-05 s⁻¹. For the same variant, the “self-cleavage kobs at 160 uM GlcN6P” value in data set [4] was 0.000422 ± 0.00011 s⁻¹. Also, the “self-cleavage kobs at 640 uM GlcN6P” value in data set [5] worked out at 0.00107 ± 0.00016 s⁻¹. Besides, the “self-cleavage kobs at 2500 uM GlcN6P” value in data set [7] is 0.00268 ± 0.00057 s⁻¹. Further, the “self-cleavage kobs at 10000 uM GlcN6P” value in data set [6] came out at 0.00711 ± 0.001 s⁻¹.
Turning to G41C C67U C70A, the kcat in data set [1] is 5.68e-05 ± 1.2e-05 s⁻¹. Further, the KM in data set [2] is 9730 ± 3700 µM. Besides, in data set [6], the “self-cleavage kobs at 10000 uM GlcN6P” value was determined as 2.88e-05 ± 1.3e-05 s⁻¹.
For the variant C34G G60U, the kcat in data set [1] is under 1e-05 s⁻¹. Moreover, the “self-cleavage kobs at 40 uM GlcN6P” value in data set [3] is under 1e-05 s⁻¹. Besides, the “self-cleavage kobs at 2500 uM GlcN6P” value in data set [7] is under 1e-05 s⁻¹.
For the variant G62U U69A, in data set [1], the catalytic constant (kcat) was found to be 2.59e-05 ± 3.9e-06 s⁻¹.
As for A52U C67U, the kcat in data set [1] worked out at 0.000336 ± 2.3e-05 s⁻¹. The KM in data set [2] worked out at 2300 ± 310 µM. For the same variant, the “self-cleavage kobs at 640 uM GlcN6P” value in data set [5] was found to be 7.82e-05 ± 1e-05 s⁻¹. The “self-cleavage kobs at 2500 uM GlcN6P” value in data set [7] amounted to 0.000163 ± 2e-05 s⁻¹. Besides, in data set [6], the “self-cleavage kobs at 10000 uM GlcN6P” value stood at 0.00028 ± 2.8e-05 s⁻¹.
Consider A1G G37U, for which, in data set [1], the kcat is 1.48e-05 ± 2.9e-06 s⁻¹. Moreover, the “self-cleavage kobs at 640 uM GlcN6P” value in data set [5] is under 1e-05 s⁻¹.
For the variant G32A C58U, the kcat in data set [1] came out at 6.81e-05 ± 1.1e-05 s⁻¹. Further, the “self-cleavage kobs at 40 uM GlcN6P” value in data set [3] is under 1e-05 s⁻¹. The “self-cleavage kobs at 640 uM GlcN6P” value in data set [5] was found to be 3.37e-05 ± 1.6e-05 s⁻¹. Moreover, the “self-cleavage kobs at 2500 uM GlcN6P” value in data set [7] is 4.13e-05 ± 1.1e-05 s⁻¹. For the same variant, the “self-cleavage kobs at 10000 uM GlcN6P” value in data set [6] came to 6.46e-05 ± 1.3e-05 s⁻¹.
